# B1: 6xHis-Strep-TEV-GFP-NBR1 (natural protein, human, UniProt Q14596 1-966, looked up)
# chain: MEPQVTLNVTFKNEIQSFLVSDPENTTWADIEAMVKVSFDLNTIQIKYLDEENEEVSINSQGEYEEALKMAVKQGNQLQMQVHEGHHVVDEAPPPVVGAKRLAARAGKKPLAHYSSLVRVLGSDMKTPEDPAVQSFPLVPCDTDQPQDKPPDWFTSYLETFREQVVNETVEKLEQKLHEKLVLQNPSLGSCPSEVSMPTSEETLFLPENQFSWHIACNNCQRRIVGVRYQCSLCPSYNICEDCEAGPYGHDTNHVLLKLRRPVVGSSEPFCHSKYSTPRLPAALEQVRLQKQVDKNFLKAEKQRLRAEKKQRKAEVKELKKQLKLHRKIHLWNSIHGLQSPKSPLGRPESLLQSNTLMLPLQPCTSVMPMLSAAFVDENLPDGTHLQPGTKFIKHWRMKNTGNVKWSADTKLKFMWGNLTLASTEKKDVLVPCLKAGHVGVVSVEFIAPALEGTYTSHWRLSHKGQQFGPRVWCSIIVDPFPSEESPDNIEKGMISSSKTDDLTCQQEETFLLAKEERQLGEVTEQTEGTAACIPQKAKNVASERELYIPSVDLLTAQDLLSFELLDINIVQELERVPHNTPVDVTPCMSPLPHDSPLIEKPGLGQIEEENEGAGFKALPDSMVSVKRKAENIASVEEAEEDLSGTQFVCETVIRSLTLDAAPDHNPPCRQKSLQMTFALPEGPLGNEKEEIIHIAEEEAVMEEEEDEEDEEEEDELKDEVQSQSSASSEDYIIILPECFDTSRPLGDSMYSSALSQPGLERGAEGKPGVEAGQEPAEAGERLPGGENQPQEHSISDILTTSQTLETVPLIPEVVELPPSLPRSSPCVHHHGSPGVDLPVTIPEVSSVPDQIRGEPRGSSGLVNSRQKSYDHSRHHHGSSIAGGLVKGALSVAASAYKALFAGPPVTAQPIISEDQTAALMAHLFEMGFCDRQLNLRLLKKHNYNILQVVTELLQLNNNDWYSQRY
# notes: NBR1, human, ORF amplified from HeLa cells cDNA; called full-length NBR1 in the results; Tag ends are read from the construct's name; a TEV site lies between Strep and GFP, cleavage is not mentioned; also called GFP-NBR1 WT; full-length NBR1; source: Sf9, purified (HisTrap, SEC on Superose 6); not shown: GFP, N-terminal, kept
# B2: GST-FIP200 Claw (aa 1494-1594) (domain or fragment, UniProt Q8TDY2 1494-1594, looked up)
# chain: EKIAIRDFQVGDLVLIILDERHDNYVLFTVSPTLYFLHSESLPALDLKPGEGASGASRRPWVLGKVMEKEYCQAKKAQNRFKVPLGTKFYRVKAVSWNKKV
# notes: FIP200 Claw domain, aa 1494-1594; The tag's end is read from the construct's name; also called Claw domain of FIP200; source: expressed and purified as the GST-FIP200 CTR construct (previously described); not shown: GST, N-terminal, kept
# Legend:
# Assay in all cases: pull-down; microscopy-based protein-protein interaction assay: GST-tagged bait saturated on Glutathione Sepharose 4B beads, fluorescent prey at 2 µM, 25 mM HEPES pH 7.5, 150 mM NaCl, 1 mM DTT, 30 min-1 h at room temperature, beads imaged at the equilibrium by confocal microscopy
# Details in all cases: both partners purified
# GST-FIP200 = target: T1, GST-FIP200 (UniProt Q8TDY2 1-1594)
# T1 construct: FIP200, insect codon-optimized gene purchased from GenScript; The tag's end is read from the construct's name; In the functional rows on condensates the protein added was FIP200-GFP (GST cleaved off GST-FIP200-GFP with 3C protease); source: Sf9, purified (Glutathione Sepharose 4B, SEC on Superose 6 Increase); not shown: GST, N-terminal, kept
# [1] = target: T2, GST fused to four M1-linked ubiquitin moieties (GST-4xUb) (UniProt P0CG48 1-76; P0CG48 1-76; P0CG48 1-76; P0CG48 1-76)
# T2 construct: ubiquitin, first of four M1-linked (head-to-tail) moieties; ubiquitin, second of four M1-linked (head-to-tail) moieties; ubiquitin, third of four M1-linked (head-to-tail) moieties; ubiquitin, fourth of four M1-linked (head-to-tail) moieties; The tag's end is read from the construct's name; not shown: GST, N-terminal, kept
# T2 sequence (P0CG48 1-304, one chain of several): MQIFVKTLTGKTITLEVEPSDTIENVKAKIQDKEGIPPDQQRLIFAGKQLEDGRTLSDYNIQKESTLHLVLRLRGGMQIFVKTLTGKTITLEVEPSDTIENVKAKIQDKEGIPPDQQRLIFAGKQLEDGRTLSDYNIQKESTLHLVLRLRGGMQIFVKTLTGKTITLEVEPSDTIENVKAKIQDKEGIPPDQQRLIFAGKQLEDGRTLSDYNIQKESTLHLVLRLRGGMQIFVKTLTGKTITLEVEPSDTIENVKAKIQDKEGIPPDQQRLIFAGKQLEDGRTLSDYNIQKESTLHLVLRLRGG
# 6xHis-Strep-TEV-GFP-NBR1 = target: B1
binding result (GST-FIP200),binding result [1],binding result (6xHis-Strep-TEV-GFP-NBR1),Binder
binds,binds,,B1
,,binds,B2
